Results reported in patent US20180030111A1.
Like-named read-outs stand apart in the source and are kept apart here.

What was measured:
[1] = molecular target: CD32aR (FcgRIIa receptor, R at position 131) (human) (UniProt P12318); experiment: ELISA, purified IgG on coated receptor, ratio against wild-type
[2] = molecular target: CD32b (FcgRIIb receptor) (human) (UniProt P31994); experiment: as above
[3] = molecular target: CD32aH (FcgRIIa receptor, H at position 131) (human) (UniProt P12318); experiment: as above
Chain of CD32aH (FcgRIIa receptor, H at position 131) (human) (P12318 34-217): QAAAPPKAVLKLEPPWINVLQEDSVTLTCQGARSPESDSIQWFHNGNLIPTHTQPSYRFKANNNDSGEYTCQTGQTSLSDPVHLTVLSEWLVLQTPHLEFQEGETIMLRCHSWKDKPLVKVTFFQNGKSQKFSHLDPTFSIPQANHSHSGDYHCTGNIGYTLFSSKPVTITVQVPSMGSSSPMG

[4] = molecular target: CD64 (UniProt P12314); experiment: as above
Chain of CD64 (P12314 16-288 limits assumed): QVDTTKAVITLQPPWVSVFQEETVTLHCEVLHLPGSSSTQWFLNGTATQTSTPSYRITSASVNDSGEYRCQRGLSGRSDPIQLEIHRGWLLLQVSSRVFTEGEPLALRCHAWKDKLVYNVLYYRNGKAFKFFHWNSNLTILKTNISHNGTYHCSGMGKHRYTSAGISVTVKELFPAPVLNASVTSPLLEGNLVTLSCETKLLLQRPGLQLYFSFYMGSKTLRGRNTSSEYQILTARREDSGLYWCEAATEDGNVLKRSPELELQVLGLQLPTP

[5] = molecular target: C1q complement (rabbit serum as complement source) (rabbit); experiment: cell-based or functional assay
[6] = molecular target: FcgRIIIa receptor (CD16a) on human NK cells (human) (UniProt P08637); experiment: cell-based or functional assay
Chain of FcgRIIIa receptor (CD16a) on human NK cells (human) (P08637 17-254): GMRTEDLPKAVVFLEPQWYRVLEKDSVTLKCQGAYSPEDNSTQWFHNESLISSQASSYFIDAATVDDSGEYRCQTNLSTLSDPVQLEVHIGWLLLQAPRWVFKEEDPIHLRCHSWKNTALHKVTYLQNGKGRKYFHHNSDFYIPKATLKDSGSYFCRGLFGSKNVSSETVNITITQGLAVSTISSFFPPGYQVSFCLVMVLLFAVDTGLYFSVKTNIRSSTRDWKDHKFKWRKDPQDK

[7] = molecular target: FcgRIIIa receptor (CD16a) on human NK cells (human) (UniProt P08637); experiment: cell-based or functional assay; remark: listed apart in the source
[8] = molecular target: C1q complement (rabbit serum as complement source) (rabbit); experiment: cell-based or functional assay; remark: listed apart in the source
[9] = molecular target: C1q complement (rabbit serum as complement source) (rabbit); experiment: cell-based or functional assay; remark: listed apart in the source

Chain of CD32b (FcgRIIb receptor) (human) (P31994 46-217): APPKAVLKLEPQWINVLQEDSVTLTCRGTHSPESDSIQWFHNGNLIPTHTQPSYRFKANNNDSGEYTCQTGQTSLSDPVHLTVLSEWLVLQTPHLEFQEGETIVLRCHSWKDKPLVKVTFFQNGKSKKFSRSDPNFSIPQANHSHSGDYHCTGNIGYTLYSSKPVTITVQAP

Row | Substance | ELISA ratio (purified antibodies) [1] | ELISA ratio (purified antibodies) [2] | ELISA ratio (purified antibodies) [3] | ELISA ratio (purified antibodies) [4] | CDC [5] | CDC, Antibody concentration (ng/ml) giving 50% lysis of an internal control [5] | CDC, Ratio [WT]/[antibody] [5] | ADCC [6] | ADCC, EC50: Antibody concentration (ng/ml) giving 50% maximum lysis of an internal control [7] | ADCC, Ratio [WT]/[antibody] [7] | CDC, Antibody concentration (ng/ml) giving 50% lysis of an internal control [8] | CDC, Antibody concentration (ng/ml) giving 50% lysis of an internal control [9] | ADCC, EC45: Antibody concentration (ng/ml) giving 45% maximum lysis of an internal control [6] | ADCC, EC50: Antibody concentration (ng/ml) giving 50% maximum lysis of an internal control [6] | ADCC, Ratio [WT]/[antibody] [6] | CDC, Ratio [WT]/[antibody] [9] | CDC, Ratio [WT]/[antibody] [8]
1 | anti-CD20 IgG variant K3B-90 (V308A, K334R, A378V, K447N) (antibody) | 1.2 | 1.1 | 1.2 | 1.5 | 20.4 | 23.1 ng/mL | 11.3 | 0.6 | 0.75 ng/mL | 0.6 | – | – | – | – | – | – | –
2 | anti-CD20 IgG1 with wild-type Fc (IgG-WT) (antibody) | – | – | – | – | – | 262 ng/mL | 1 | – | 0.45 ng/mL | – | 237 ng/mL | 133 ng/mL | 1.6 ng/mL | 10.5 ng/mL | 1 | – | –
3 | anti-CD20 IgG variant Q3A-39 (N286I, P396L, N421T) (antibody) | 2.3 | 3.8 | 4.83 | 1.5 | 2.2 | – | – | 5.3 | – | – | – | 61 ng/mL | 0.3 ng/mL | – | 5.33 | 2.18 | –
4 | anti-CD20 IgG variant A3A-105 (G316D, K326E) (antibody) | – | – | – | – | – | – | – | – | 1.37 ng/mL | – | – | – | – | – | – | – | –
5 | anti-CD20 IgG variant A3A-105D (G316D, K326E, A378V) (antibody) | 2.6 | 2 | 1.4 | 1.5 | 6.1 | – | – | 8.3 | – | – | 38.5 ng/mL | – | – | 1.27 ng/mL | 8.28 | – | 6.14
6 | anti-CD20 IgG variant G3A-88 (K320E, T394P, G402D) (antibody) | 3.7 | 3.9 | 2.94 | 2.4 | 0.9 | – | – | 1.3 | – | – | 274 ng/mL | – | – | 8.07 ng/mL | 1.3 | – | 0.86
7 | anti-CD20 IgG variant J3B-115 (T359A, S383R, V397M) (antibody) | – | – | – | – | 3.2 | 145 ng/mL | – | – | 0.57 ng/mL | – | – | – | – | – | – | – | –
8 | anti-CD20 IgG variant J3A-28 (E333G, A378T, V397M) (antibody) | 1.3 | 1.6 | 1.1 | 1.3 | 7.6 | – | – | 18.4 | – | – | 31 ng/mL | – | – | 0.57 ng/mL | 18.4 | – | 7.64
9 | anti-CD20 IgG variant J3A-16 (N286Y, P352S, A378V) (antibody) | 1.7 | 1.7 | 2.61 | 1.3 | 1.8 | – | – | 8.3 | – | – | 132 ng/mL | – | – | 1.27 ng/mL | 8.28 | – | 1.79
10 | anti-CD20 IgG variant A3A-14 (S298N, A378V) (antibody) | 0.8 | 0.9 | 1.1 | 1.6 | 0.7 | – | – | 12.8 | – | – | 341 ng/mL | – | – | 0.82 ng/mL | 12.8 | – | 0.7
11 | anti-CD20 IgG variant K3B-01 (N315D, N361H, P396L) (antibody) | 1 | 1 | 5.7 | 2.3 | 4 | – | – | 15.2 | – | – | 59.6 ng/mL | – | – | 0.69 ng/mL | 15.2 | – | 3.97
12 | anti-CD20 IgG variant G3A-103 (K248E, A378V) (antibody) | 0.9 | 1.2 | 0.5 | 1.2 | 7.1 | – | – | 33.9 | – | – | 33.3 ng/mL | – | – | 0.31 ng/mL | 33.9 | – | 7.1
13 | anti-CD20 IgG variant J3B-118A (P396L, N421T, A378V) (antibody) | 1.8 | 3.7 | 2.7 | 1.4 | 11 | – | – | 10.8 | – | – | 21.6 ng/mL | – | – | 0.97 ng/mL | 10.8 | – | 11
14 | anti-CD20 IgG variant J3A-06 (A378T, V397M, V412M) (antibody) | 2 | 2.4 | 0.84 | 1.3 | 3.7 | – | – | 8.3 | – | – | 64.1 ng/mL | – | – | 1.27 ng/mL | 8.28 | – | 6.7
15 | anti-CD20 IgG variant A3A-31 (K334R, L410R) (antibody) | – | – | – | – | – | 108 ng/mL | 2.42 | – | 1.84 ng/mL | 0.24 | – | – | – | – | – | – | –
16 | anti-CD20 IgG variant O3A-05 (K290E, T366A, A378V) (antibody) | 3.3 | 4.5 | 4.02 | 1.2 | 1.5 | – | – | 8 | – | – | – | 91 ng/mL | 0.2 ng/mL | – | 8 | 1.46 | –
17 | anti-CD20 IgG variant N3A-87 (K290E, K320E, T350A, P396L) (antibody) | 3.7 | 9 | 3.92 | 1.5 | 1.3 | – | – | 1 | – | – | – | 106 ng/mL | 1 ng/mL | – | 1 | 1.25 | –
